Target: human MC1r (melanocortin receptor type 1) (human) (UniProt Q01726)
Experiment: cell-based or functional assay

UniProt Q01726, sequence (Q01726 whole entry): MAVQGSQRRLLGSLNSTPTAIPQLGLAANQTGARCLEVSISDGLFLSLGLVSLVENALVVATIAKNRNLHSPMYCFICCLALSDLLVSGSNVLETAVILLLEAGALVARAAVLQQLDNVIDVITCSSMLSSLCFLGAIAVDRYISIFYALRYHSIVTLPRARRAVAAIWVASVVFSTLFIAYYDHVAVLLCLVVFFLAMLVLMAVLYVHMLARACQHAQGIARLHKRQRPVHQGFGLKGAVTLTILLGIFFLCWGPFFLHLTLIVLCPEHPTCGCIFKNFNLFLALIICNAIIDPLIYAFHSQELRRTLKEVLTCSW

- EC50, cAMP production: 2.12 nM
- Emax (max efficacy expressed as percent of αMSH), cAMP production: 72 % of αMSH
Binder: Ac-KKKKKKSYSMEHFRWGKPV-NH2 [Ac(Lys)6-αMSH (Ac(Lys)6-Ser-Tyr-Ser-Met-Glu-His-Phe-Arg-Trp-Gly-Lys-Pro-Val-NH2)]
